Measured values published in patent US12630600B2 (MEDIMMUNE LIMITED, priority 2022, dated 2026).
Starred links: 1 amine or outer side, 2 acyl side, 3 side chain; linkers in the order of their positions; H or OH if unused. Non-standard residues stand in square brackets, D forms with d. Groups on a side chain read outwards from the residue. No end group written: not given here. *: point of attachment. C20 diacid = O=C(O)CCCCCCCCCCCCCCCCCCC(=O)*; C18 diacid = O=C(O)CCCCCCCCCCCCCCCCC(=O)*; PEG8 = NCCOCCOCCOCCOCCOCCOCCOCCOCCC(=O)O; Dip = N[C@H](C(=O)O)C(c1ccccc1)c1ccccc1; γGlu = O=C(O)[C@H](CCC(=O)[*:2])N[*:1]; Stearoyl = CCCCCCCCCCCCCCCCCC(=O)*; αMeF = C[C@](N)(Cc1ccccc1)C(=O)O; (PEG)2 = polyethylene glycol 2; PEG4 = NCCOCCOCCOCCOCCC(=O)O; AEEA = NCCOCCOCC(=O)O; Aib = CC(C)(N)C(=O)O

B1: Peptide 56 (peptide)
peptide: HSQGS[αMeF]TSDVSK[Dip]LDSK([PEG4-γGlu-γGlu-Stearoyl])AAQD[αMeF]VE[Aib]IINT-NH2
modifications: N-terminus assumed
SMILES: CCCCCCCCCCCCCCCCCC(=O)N[C@@H](CCC(=O)N[C@@H](CCC(=O)NCCOCCOCCOCCOCCC(=O)NCCCC[C@H](NC(=O)[C@H](CO)NC(=O)[C@H](CC(=O)O)NC(=O)[C@H](CC(C)C)NC(=O)[C@@H](NC(=O)[C@H](CCCCN)NC(=O)[C@H](CO)NC(=O)[C@@H](NC(=O)[C@H](CC(=O)O)NC(=O)[C@H](CO)NC(=O)[C@@H](NC(=O)[C@](C)(Cc1ccccc1)NC(=O)[C@H](CO)NC(=O)CNC(=O)[C@H](CCC(N)=O)NC(=O)[C@H](CO)NC(=O)[C@@H](N)Cc1c[nH]cn1)[C@@H](C)O)C(C)C)C(c1ccccc1)c1ccccc1)C(=O)N[C@@H](C)C(=O)N[C@@H](C)C(=O)N[C@@H](CCC(N)=O)C(=O)N[C@@H](CC(=O)O)C(=O)N[C@@](C)(Cc1ccccc1)C(=O)N[C@H](C(=O)N[C@@H](CCC(=O)O)C(=O)NC(C)(C)C(=O)N[C@H](C(=O)N[C@H](C(=O)N[C@@H](CC(N)=O)C(=O)N[C@H](C(N)=O)[C@@H](C)O)[C@@H](C)CC)[C@@H](C)CC)C(C)C)C(=O)O)C(=O)O
B2: Peptide 153 (peptide)
peptide: H[Aib]QGTFTSDVSK[αMeF]LDSK([AEEA-AEEA-γGlu-C20 diacid])RAQDFVRWLL[Aib]E-OH
modifications: N-terminus assumed
SMILES: CC(C)C[C@H](NC(=O)[C@H](Cc1c[nH]c2ccccc12)NC(=O)[C@H](CCCNC(=N)N)NC(=O)[C@@H](NC(=O)[C@H](Cc1ccccc1)NC(=O)[C@H](CC(=O)O)NC(=O)[C@H](CCC(N)=O)NC(=O)[C@H](C)NC(=O)[C@H](CCCNC(=N)N)NC(=O)[C@H](CCCCNC(=O)COCCOCCNC(=O)COCCOCCNC(=O)CC[C@H](NC(=O)CCCCCCCCCCCCCCCCCCC(=O)O)C(=O)O)NC(=O)[C@H](CO)NC(=O)[C@H](CC(=O)O)NC(=O)[C@H](CC(C)C)NC(=O)[C@](C)(Cc1ccccc1)NC(=O)[C@H](CCCCN)NC(=O)[C@H](CO)NC(=O)[C@@H](NC(=O)[C@H](CC(=O)O)NC(=O)[C@H](CO)NC(=O)[C@@H](NC(=O)[C@H](Cc1ccccc1)NC(=O)[C@@H](NC(=O)CNC(=O)[C@H](CCC(N)=O)NC(=O)C(C)(C)NC(=O)[C@@H](N)Cc1c[nH]cn1)[C@@H](C)O)[C@@H](C)O)C(C)C)C(C)C)C(=O)N[C@@H](CC(C)C)C(=O)NC(C)(C)C(=O)N[C@@H](CCC(=O)O)C(=O)O
B3: Peptide 55 (peptide)
peptide: HSQGS[αMeF]TSDVSK[Dip]LDSK([(PEG)2-(PEG)2-γGlu-γGlu-Stearoyl])AAQD[αMeF]VQ[Dip]LEA-NH2
B4: Peptide 166 (peptide)
peptide: H[Aib]QGTFTSDVSK[αMeF]LDSK([AEEA-AEEA-γGlu-C18 diacid])RARDFVRWLL[Aib]TE-OH
modifications: also: αMePhe at 23 (V)
B5: Peptide 5 (peptide)
peptide: H[Aib]QGS[αMeF]TSDVSK[αMeF]LDSK([AEEA-AEEA-γGlu-γGlu-C18 diacid])AAQD[αMeF]VQ[Aib]IAN-NH2
modifications: N-terminus assumed
SMILES: CC[C@H](C)[C@H](NC(=O)C(C)(C)NC(=O)[C@H](CCC(N)=O)NC(=O)[C@@H](NC(=O)[C@](C)(Cc1ccccc1)NC(=O)[C@H](CC(=O)O)NC(=O)[C@H](CCC(N)=O)NC(=O)[C@H](C)NC(=O)[C@H](C)NC(=O)[C@H](CCCCNC(=O)COCCOCCNC(=O)COCCOCCNC(=O)CC[C@H](NC(=O)CC[C@H](NC(=O)CCCCCCCCCCCCCCCCC(=O)O)C(=O)O)C(=O)O)NC(=O)[C@H](CO)NC(=O)[C@H](CC(=O)O)NC(=O)[C@H](CC(C)C)NC(=O)[C@](C)(Cc1ccccc1)NC(=O)[C@H](CCCCN)NC(=O)[C@H](CO)NC(=O)[C@@H](NC(=O)[C@H](CC(=O)O)NC(=O)[C@H](CO)NC(=O)[C@@H](NC(=O)[C@](C)(Cc1ccccc1)NC(=O)[C@H](CO)NC(=O)CNC(=O)[C@H](CCC(N)=O)NC(=O)C(C)(C)NC(=O)[C@@H](N)Cc1c[nH]cn1)[C@@H](C)O)C(C)C)C(C)C)C(=O)N[C@@H](C)C(=O)N[C@@H](CC(N)=O)C(N)=O
B6: Peptide 6 (peptide)
peptide: H[Aib]HGS[αMeF]TSDVSK[αMeF]LDSK([AEEA-AEEA-γGlu-C18 diacid])AAQD[αMeF]VEWIAN-NH2
modifications: N-terminus assumed
SMILES: CC[C@H](C)[C@H](NC(=O)[C@H](Cc1c[nH]c2ccccc12)NC(=O)[C@H](CCC(=O)O)NC(=O)[C@@H](NC(=O)[C@](C)(Cc1ccccc1)NC(=O)[C@H](CC(=O)O)NC(=O)[C@H](CCC(N)=O)NC(=O)[C@H](C)NC(=O)[C@H](C)NC(=O)[C@H](CCCCNC(=O)COCCOCCNC(=O)COCCOCCNC(=O)CC[C@H](NC(=O)CCCCCCCCCCCCCCCCC(=O)O)C(=O)O)NC(=O)[C@H](CO)NC(=O)[C@H](CC(=O)O)NC(=O)[C@H](CC(C)C)NC(=O)[C@](C)(Cc1ccccc1)NC(=O)[C@H](CCCCN)NC(=O)[C@H](CO)NC(=O)[C@@H](NC(=O)[C@H](CC(=O)O)NC(=O)[C@H](CO)NC(=O)[C@@H](NC(=O)[C@](C)(Cc1ccccc1)NC(=O)[C@H](CO)NC(=O)CNC(=O)[C@H](Cc1c[nH]cn1)NC(=O)C(C)(C)NC(=O)[C@@H](N)Cc1c[nH]cn1)[C@@H](C)O)C(C)C)C(C)C)C(=O)N[C@@H](C)C(=O)N[C@@H](CC(N)=O)C(N)=O
B7: Peptide 7 (peptide)
peptide: H[Aib]HGS[αMeF]TSDVSK[αMeF]LDSK([γGlu-C18 diacid])AAQD[αMeF]VEWIANT-NH2
modifications: N-terminus assumed
SMILES: CC[C@H](C)[C@H](NC(=O)[C@H](Cc1c[nH]c2ccccc12)NC(=O)[C@H](CCC(=O)O)NC(=O)[C@@H](NC(=O)[C@](C)(Cc1ccccc1)NC(=O)[C@H](CC(=O)O)NC(=O)[C@H](CCC(N)=O)NC(=O)[C@H](C)NC(=O)[C@H](C)NC(=O)[C@H](CCCCNC(=O)CC[C@H](NC(=O)CCCCCCCCCCCCCCCCC(=O)O)C(=O)O)NC(=O)[C@H](CO)NC(=O)[C@H](CC(=O)O)NC(=O)[C@H](CC(C)C)NC(=O)[C@](C)(Cc1ccccc1)NC(=O)[C@H](CCCCN)NC(=O)[C@H](CO)NC(=O)[C@@H](NC(=O)[C@H](CC(=O)O)NC(=O)[C@H](CO)NC(=O)[C@@H](NC(=O)[C@](C)(Cc1ccccc1)NC(=O)[C@H](CO)NC(=O)CNC(=O)[C@H](Cc1c[nH]cn1)NC(=O)C(C)(C)NC(=O)[C@@H](N)Cc1c[nH]cn1)[C@@H](C)O)C(C)C)C(C)C)C(=O)N[C@@H](C)C(=O)N[C@@H](CC(N)=O)C(=O)N[C@H](C(N)=O)[C@@H](C)O
B8: Peptide 152 (peptide)
peptide: H[Aib]QGTFTSDVSK[αMeF]LDSK([AEEA-AEEA-γGlu-C18 diacid])RAQDFVRWLL[Aib]E-OH
modifications: N-terminus assumed
SMILES: CC(C)C[C@H](NC(=O)[C@H](Cc1c[nH]c2ccccc12)NC(=O)[C@H](CCCNC(=N)N)NC(=O)[C@@H](NC(=O)[C@H](Cc1ccccc1)NC(=O)[C@H](CC(=O)O)NC(=O)[C@H](CCC(N)=O)NC(=O)[C@H](C)NC(=O)[C@H](CCCNC(=N)N)NC(=O)[C@H](CCCCNC(=O)COCCOCCNC(=O)COCCOCCNC(=O)CC[C@H](NC(=O)CCCCCCCCCCCCCCCCC(=O)O)C(=O)O)NC(=O)[C@H](CO)NC(=O)[C@H](CC(=O)O)NC(=O)[C@H](CC(C)C)NC(=O)[C@](C)(Cc1ccccc1)NC(=O)[C@H](CCCCN)NC(=O)[C@H](CO)NC(=O)[C@@H](NC(=O)[C@H](CC(=O)O)NC(=O)[C@H](CO)NC(=O)[C@@H](NC(=O)[C@H](Cc1ccccc1)NC(=O)[C@@H](NC(=O)CNC(=O)[C@H](CCC(N)=O)NC(=O)C(C)(C)NC(=O)[C@@H](N)Cc1c[nH]cn1)[C@@H](C)O)[C@@H](C)O)C(C)C)C(C)C)C(=O)N[C@@H](CC(C)C)C(=O)NC(C)(C)C(=O)N[C@@H](CCC(=O)O)C(=O)O
B9: Peptide 57 (peptide)
peptide: HSQGS[αMeF]TSDVSK[Dip]LDSK([PEG8-γGlu-γGlu-Stearoyl])AAQD[αMeF]VE[Aib]IINT-NH2
modifications: N-terminus assumed
SMILES: CCCCCCCCCCCCCCCCCC(=O)N[C@@H](CCC(=O)N[C@@H](CCC(=O)NCCOCCOCCOCCOCCOCCOCCOCCOCCC(=O)NCCCC[C@H](NC(=O)[C@H](CO)NC(=O)[C@H](CC(=O)O)NC(=O)[C@H](CC(C)C)NC(=O)[C@@H](NC(=O)[C@H](CCCCN)NC(=O)[C@H](CO)NC(=O)[C@@H](NC(=O)[C@H](CC(=O)O)NC(=O)[C@H](CO)NC(=O)[C@@H](NC(=O)[C@](C)(Cc1ccccc1)NC(=O)[C@H](CO)NC(=O)CNC(=O)[C@H](CCC(N)=O)NC(=O)[C@H](CO)NC(=O)[C@@H](N)Cc1c[nH]cn1)[C@@H](C)O)C(C)C)C(c1ccccc1)c1ccccc1)C(=O)N[C@@H](C)C(=O)N[C@@H](C)C(=O)N[C@@H](CCC(N)=O)C(=O)N[C@@H](CC(=O)O)C(=O)N[C@@](C)(Cc1ccccc1)C(=O)N[C@H](C(=O)N[C@@H](CCC(=O)O)C(=O)NC(C)(C)C(=O)N[C@H](C(=O)N[C@H](C(=O)N[C@@H](CC(N)=O)C(=O)N[C@H](C(N)=O)[C@@H](C)O)[C@@H](C)CC)[C@@H](C)CC)C(C)C)C(=O)O)C(=O)O

The binders below were run against human glucagon receptor (human, UniProt P47871) (assay: cell-based or functional assay).
B1 was tested, and the “cAMP production, hGluc-R EC50 (pM)” value was 10.9 pM.
With B2 the “cAMP production, hGluc-R EC50 (pM)” value was 99 pM.
With B3 the “cAMP production, hGluc-R EC50 (pM)” value was 19.1 pM.
For B4, the “cAMP production, hGluc-R EC50 (pM)” value was 270 pM.
For B5, the “cAMP production, hGluc-R EC50 (pM)” value was 7140 pM.
B6 was tested, and the “cAMP production, hGluc-R EC50 (pM)” value was 516 pM.
B7 was tested, and the “cAMP production, hGluc-R EC50 (pM)” value was 30.7 pM.
For B8, the “cAMP production, hGluc-R EC50 (pM)” value was 20.4 pM.
B9 was tested, and the “cAMP production, hGluc-R EC50 (pM)” value was 16.9 pM.

The binders below were run against human GLP-1 receptor (human, UniProt P43220) (assay: cell-based or functional assay).
For B1, the “cAMP production, hGLP-1R EC50 (pM)” value was 4.86 pM.
B2 was tested, and the “cAMP production, hGLP-1R EC50 (pM)” value was 41.2 pM.
In the case of B3, the “cAMP production, hGLP-1R EC50 (pM)” value is reported as 18.8 pM.
In the case of B4, the “cAMP production, hGLP-1R EC50 (pM)” value is reported as 48 pM.
In the case of B5, the “cAMP production, hGLP-1R EC50 (pM)” value is reported as 283 pM.
In the case of B6, the “cAMP production, hGLP-1R EC50 (pM)” value is reported as 568 pM.
For B7, the “cAMP production, hGLP-1R EC50 (pM)” value was 84.6 pM.
With B8 the “cAMP production, hGLP-1R EC50 (pM)” value was 11.9 pM.
With B9 the “cAMP production, hGLP-1R EC50 (pM)” value was 9.09 pM.
